From patent US20250340660A1 (published 2025)

T1: recombinant human CD30L protein (human, UniProt P32971 63-234, limits assumed)
T1 construct: also called huCD30L; rhCD30L
T1 sequence (looked up): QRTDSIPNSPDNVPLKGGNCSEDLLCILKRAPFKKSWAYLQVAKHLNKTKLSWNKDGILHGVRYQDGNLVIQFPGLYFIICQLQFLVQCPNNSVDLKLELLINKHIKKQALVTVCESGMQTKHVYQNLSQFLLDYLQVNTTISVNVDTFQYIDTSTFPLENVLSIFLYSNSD

T2: human CD30L expressed on cells (human, UniProt P32971 1-234)
T2 construct: also called huCD30L; TNFSF8
T2 sequence: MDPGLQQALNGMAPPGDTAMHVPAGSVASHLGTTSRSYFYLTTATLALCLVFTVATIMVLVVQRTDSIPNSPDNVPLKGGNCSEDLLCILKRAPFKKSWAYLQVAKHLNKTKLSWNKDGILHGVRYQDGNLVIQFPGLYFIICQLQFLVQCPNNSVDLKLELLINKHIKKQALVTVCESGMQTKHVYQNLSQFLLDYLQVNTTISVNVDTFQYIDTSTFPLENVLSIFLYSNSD

T3: cynomolgus CD30L expressed on cells (cynomolgus, UniProt A0A7N9CVX7 1-234)
T3 construct: whole, on cells; also called cyCD30L; cyno CD30L
T3 sequence: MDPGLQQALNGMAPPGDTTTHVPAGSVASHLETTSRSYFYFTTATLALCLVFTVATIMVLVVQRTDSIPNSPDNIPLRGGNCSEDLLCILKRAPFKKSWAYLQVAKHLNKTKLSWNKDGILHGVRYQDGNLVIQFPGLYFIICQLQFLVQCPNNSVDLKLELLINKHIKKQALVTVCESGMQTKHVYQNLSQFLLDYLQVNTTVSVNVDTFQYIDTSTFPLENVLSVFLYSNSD

T4: human CD30L (recombinant protein) (human, UniProt P32971 63-234)
T4 construct: also called rhCD30L; TNFSF8
T4 sequence: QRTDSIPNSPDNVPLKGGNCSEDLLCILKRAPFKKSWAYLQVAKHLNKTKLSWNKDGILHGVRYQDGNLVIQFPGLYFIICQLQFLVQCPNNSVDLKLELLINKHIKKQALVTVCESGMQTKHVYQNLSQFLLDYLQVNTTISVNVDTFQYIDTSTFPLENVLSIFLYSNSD

T5: recombinant human CD30L (human, UniProt P32971 63-234, limits assumed)
T5 construct: also called rhCD30L; TNFSF8
T5 sequence (looked up): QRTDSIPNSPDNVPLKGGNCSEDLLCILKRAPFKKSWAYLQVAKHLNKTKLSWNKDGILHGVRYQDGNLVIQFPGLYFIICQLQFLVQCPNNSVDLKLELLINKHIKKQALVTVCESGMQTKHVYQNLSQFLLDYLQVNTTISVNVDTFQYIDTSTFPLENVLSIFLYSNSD

T6: human CD30L expressed on B16 cells (human, UniProt P32971 1-234)
T6 sequence (looked up): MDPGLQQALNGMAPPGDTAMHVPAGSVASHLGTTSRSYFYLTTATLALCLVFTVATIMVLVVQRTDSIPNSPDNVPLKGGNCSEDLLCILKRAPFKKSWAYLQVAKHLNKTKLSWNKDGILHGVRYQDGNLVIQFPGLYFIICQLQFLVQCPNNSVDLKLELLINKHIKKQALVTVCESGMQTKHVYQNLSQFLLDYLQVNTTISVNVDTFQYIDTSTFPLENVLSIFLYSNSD

T7: cynomolgus CD30L expressed on HEK293 cells (cynomolgus, UniProt A0A7N9CVX7 1-234)
T7 sequence: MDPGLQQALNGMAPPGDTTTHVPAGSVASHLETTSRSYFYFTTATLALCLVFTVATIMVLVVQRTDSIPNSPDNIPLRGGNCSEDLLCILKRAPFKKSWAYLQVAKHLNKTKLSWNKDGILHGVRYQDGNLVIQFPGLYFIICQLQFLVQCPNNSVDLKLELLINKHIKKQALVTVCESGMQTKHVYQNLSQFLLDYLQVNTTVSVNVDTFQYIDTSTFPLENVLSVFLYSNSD


Experiments:
[1] = biological target: T1, recombinant human CD30L protein; test: ELISA, hybridoma supernatant 1/50 dil, recombinant human CD30L
[2] = biological target: T1, recombinant human CD30L protein; test: ELISA, hybridoma supernatant 1/500 dil, recombinant human CD30L
[3] = biological target: T1, recombinant human CD30L protein; test: ELISA, hybridoma supernatant 1/5000 dil, recombinant human CD30L
[4] = biological target: T2, human CD30L expressed on cells; test: flow cytometry, hybridoma supernatant 1/50 dil, cells expressing human CD30L
[5] = biological target: T3, cynomolgus CD30L expressed on cells; test: flow cytometry, hybridoma supernatant 1/50 dil, cells expressing cynomolgus CD30L
[6] = biological target: T4, human CD30L (recombinant protein); test: Carterra, human CD30L
[7] = biological target: T5, recombinant human CD30L; test: biosensor: antibody captured, CD30L bound, competitor rhCD30 added; signal of CD30 association (over 0.15 = non-blocking)
Description: Briefly, individual anti-human biosensors were loaded with purified IgG (normalized to 10 μg/mL) and a baseline was measured for each biosensor. Biosensors were saturated with biotin and with polyclonal huIgG and a baseline was measured. […] Biosensors were moved to buffer wells to measure the dissociation rate.

[8] = biological target: T6, human CD30L expressed on B16 cells; test: cell-based or functional assay
[9] = biological target: T7, cynomolgus CD30L expressed on HEK293 …; test: cell-based or functional assay

| Elisa Binding (OD) [1] [OD] | Elisa Binding (OD) [2] [OD] | Elisa Binding (OD) [3] [OD] | Cell Binding (MFI) [4] [MFI] | Cell Binding (MFI) [5] [MFI] | Inhibition of IL-8 release in a dual cell assay (B16-huCD30L cells + K299 cells) IC50 [8] [nM] | Inhibition of IL-8 release in a dual cell assay (HEK293-cyCD30L cells + K299 cells) IC50 [9] [nM] | Binder | other results |
| --- | --- | --- | --- | --- | --- | --- | --- | --- |
| 2.15 | 1.71 | 0.565 | 280 | 57.6 | – | – | anti-CD30L antibody Clone 2 (parental, hybridoma) (antibody, V domains shown, Tested as diluted hybridoma supernatant from mice with a humanized immunoglobulin locus) VH: EVQLVESGGGLVQPGRSLRLSCAASGFNFDDYAMHWVRQAPGKGLEWVSGISWRSGNIGYAGSVKGRFTISRDNAKNSLYLQMNSLRPEDSALYYCAKDKGIGFNWNYEGFDYWGQGTLVTVSS VL: DIQMTQSPSSLSASVGDRVTITCRASQGISNHLAWFQQKPGKAPKSLIYAASSLQSGVPSKFSGSGSGTDFTLTISSLQPEDFATYYCQQYVTYPLTFGGGTKVEIK | – |
| – | – | – | – | – | – | – | anti-CD30L antibody clone 63 (antibody, V domains shown, Purified recombinant antibody) VH: EVQLVESGGGLVQPGGSLRLSCAASGFMFSSYSMNWVRQAPGKGLEWVSYISSSSSTIYDADSVKGRFTISRDDAKNSLYLQMNSLRDEDTAVYYCTREAYPGYYYNYMDVWGKGTTVTVSS VL: DIQMTQSPSSLSASVGDRVTITCRASQSISSRLAWYQQKPGKAPNLLIYKASNLESGVPSRFSGSGSGTEFTLTISSLQPDDFATYYCQQYNSYSRTFGQGTKVEIK | Kd [6]: 1.85 nM |
| – | – | – | – | – | – | – | anti-CD30L antibody clone 63 (antibody, V domains shown, purified recombinant IgG, humanized mouse strain #1; also called Clone ID 63) VH: EVQLVESGGGLVQPGGSLRLSCAASGFMFSSYSMNWVRQAPGKGLEWVSYISSSSSTIYDADSVKGRFTISRDDAKNSLYLQMNSLRDEDTAVYYCTREAYPGYYYNYMDVWGKGTTVTVSS VL: DIQMTQSPSSLSASVGDRVTITCRASQSISSRLAWYQQKPGKAPNLLIYKASNLESGVPSRFSGSGSGTEFTLTISSLQPDDFATYYCQQYNSYSRTFGQGTKVEIK | rhCD30L:rhCD30 Blocking [7]: 0.0592 relative units |
| – | – | – | – | – | 1.61 | 0.79 | anti-CD30L Reference 1 antibody (antibody, human IgG1, lambda, V domains shown) VH: QVQLQESGPGLVKPSETLSLTCTVSGGSISSYIWSWIRQPAGKGLEWIGRIYASGNTNYNPSLKSRVTISVDTSKNQFSLKLSSMTAADTAVYYCARDYRVAGTYYYYYGLDVWGQGTTVTVSS VL: QSALTQPASVSGSPGQSITISCTGTSSDVGVYDYVSWYQQHPGKAPKLMIYEVSNRPSGVSNRFSGSKSGNTASLTISGLQTEDEADYYCSSYTSRSTWVFGGGTKLTVLG | – |
| – | – | – | – | – | – | – | anti-CD30L antibody clone 82 (antibody, V domains shown, Purified recombinant antibody) VH: EVQLVESGGGLVQPGGSLRLSCAVSGITFSNAWMSWVRQAPGKGLEWVGRIKSKTYGGTTDYAAPVKGRFIISRDDSKDTLYLQMNSLKTEDTAIYYCTTDPWNYVNYNYFMDVWGKGTTVTVSS VL: DIQMTQSPSSLSASVGDRVTITCRASQDIRNYLAWYQQKPGKITHLLVYAASTLQSGVPSRFSGSGSGTDFTLTINSLQPEDVATYYCQNYFSVPLTFGGGTKVEIK | Kd [6]: 0.559 nM |
| – | – | – | – | – | 1.43 | 0.39 | anti-CD30L antibody clone 1 (antibody, V domains shown) VH: QVQLQESGPGLVKPSETLSLTCTVSGGSISGYYWSWIRQPPVKGLEWIGYIFYSGYTKYNPSLKSRVTISVDTSKNQFSLKLSSVTAADTAVYYCARDRWDFDYWGQGALVTVSS VL: AIQMTQSPSYLSASVGDRVTIACRASQGIRNNLGWYQQKPGKAPKLLIYAESSLQSGVPSRFSGSGSGTDFTLTISSLQPEDFATYYCLQDFNYPYTFGQGTKLEIK | – |
| 3.59 | 3.02 | 1.28 | 208 | 77.3 | – | – | anti-CD30L antibody Clone 1 (parental, hybridoma) (antibody, V domains shown, Tested as diluted hybridoma supernatant from mice with a humanized immunoglobulin locus) VH: QVQLQESGPGLVKPSETLSLTCTVSGGSISGYYWSWIRQPPVKGLEWIGYIFYSGYTKYNPSLKSRVTISVDTSKNQFSLKLSSVTAADTAVYYCARDRWDFDYWGQGALVTVSS VL: AIQMTQSPSYLSASVGDRVTIACRASQGIRNNLGWYQQKPGKAPKLLIYAESSLQSGVPSRFSGSGSGTDFTLTISSLQPEDFATYYCLQDFNYPYTFGQGTKLEIK | – |
| – | – | – | – | – | 1.29 | 0.43 | anti-CD30L antibody clone 1 germlined (antibody, V domains shown) VH: QVQLQESGPGLVKPSETLSLTCTVSGGSISGYYWSWIRQPPGKGLEWIGYIFYSGYTKYNPSLKSRVTISVDTSKNQFSLKLSSVTAADTAVYYCARDRWDFDYWGQGTLVTVSS VL: AIQMTQSPSSLSASVGDRVTITCRASQGIRNNLGWYQQKPGKAPKLLIYAESSLQSGVPSRFSGSGSGTDFTLTISSLQPEDFATYYCLQDFNYPYTFGQGTKLEIK | – |
| 3.5 | 2.54 | 0.662 | 153 | 72.4 | – | – | anti-CD30L antibody Clone 3 (parental, hybridoma) (antibody, V domains shown, Tested as diluted hybridoma supernatant from mice with a humanized immunoglobulin locus) VH: QVQLQESGPGLVKPSETLSLTCTVSGGSISGYYWSWIRQPPVKGLEWIGYIFYSGYTKYNPSLKSRVTISVDTSKNQFSLKLSSVTAADTAVYYCARDRWDFDYWGQGALVTVSS VL: not shown | – |
